From PMC3294036 (Nature structural & molecular biology, 2012)

B1: GST-tagged wildtype AKAP79(333–408) (PIAIIIT) (domain or fragment)
chain: KRMEPIAIIITDTEISEFDVTKSKNVPKQFLISAENEQVGVFANDNGFEDRTSEQYETLLIETASSLVKNAIQLSI
B2: GST-AKAP79(333–408) I338P (PPAIIIT) (domain or fragment)
chain: KRMEPPAIIITDTEISEFDVTKSKNVPKQFLISAENEQVGVFANDNGFEDRTSEQYETLLIETASSLVKNAIQLSI
B3: GST-AKAP79(333–408) I338P T343A (PPAIIIA) (domain or fragment)
chain: KRMEPPAIIIADTEISEFDVTKSKNVPKQFLISAENEQVGVFANDNGFEDRTSEQYETLLIETASSLVKNAIQLSI
B4: GST-AKAP79(333–408) T343A (PIAIIIA) (domain or fragment)
chain: KRMEPIAIIIADTEISEFDVTKSKNVPKQFLISAENEQVGVFANDNGFEDRTSEQYETLLIETASSLVKNAIQLSI
B5: ATTO425-AKAP79(333–408) I338P variant (PPAIIIT) (domain or fragment)
chain: KRMEPPAIIITDTEISEFDVTKSKNVPKQFLISAENEQVGVFANDNGFEDRTSEQYETLLIETASSLVKNAIQLSI
modifications: ATTO 425 donor label (site not stated)
B6: AKAP79(333–408) (domain or fragment)
chain: KRMEPIAIIITDTEISEFDVTKSKNVPKQFLISAENEQVGVFANDNGFEDRTSEQYETLLIETASSLVKNAIQLSI

Experiments:
[1] = biological target: T1, calcineurin (CN A–CN B heterodimer), recombinant (UniProt Q08209;P63098)
T1 sequence (P63098 16-170, one chain of several): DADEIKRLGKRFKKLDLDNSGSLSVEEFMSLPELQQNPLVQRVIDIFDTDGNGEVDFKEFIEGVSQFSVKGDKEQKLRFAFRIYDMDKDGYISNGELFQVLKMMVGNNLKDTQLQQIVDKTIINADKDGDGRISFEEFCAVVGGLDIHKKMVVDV

[2] = biological target: rhodamine-CN (calcineurin labelled with tetramethylrhodamine acceptor) (UniProt Q08209;P63098, tetramethylrhodamine label on CN (chain and site not stated)); experiment: FRET or BRET
[3] = biological target: T1, calcineurin (CN A–CN B heterodimer), …; experiment: SEC-MALS

| Ki [1] [µM] | further results | Binder |
| --- | --- | --- |
| 0.36 | – | B1 |
| 0.08 | – | B2 |
| 12 | – | B3 |
| 39 | – | B4 |
| – | koff [2]: 4.24 s⁻¹ | B5 |
| – | stoichiometry N [3]: 1 | B6 |
| 47 | – | KRMEPAAIIITDTEIS (domain or fragment) [GST-AKAP79(333–348) I338A (PAAIIIT)] |
| 3.7 | – | KRMEAIAIIITDTEIS (domain or fragment) [GST-AKAP79(333–348) P337A (AIAIIIT)] |
